Measurements from patent publication US10874712B2, “Methods, compounds and compositions for modulating blood brain barrier integrity and re-myelination” (University Health Network, priority 2015, dated 2020).

What was measured:
[1] = system: MOG(35-55)-pulsed splenocytes of EAE-induced mice; assay: MOG-specific cytokine expression, secretion and proliferation of splenocytes; assay type: in vivo, mouse
Description: Mice were sacrificed on day 10 post-induction and single cells suspension of splenocytes were harvested as described above. Cells (1×10^6) were cultured in 10% FBS RPMI-1640 in the presence of 0 μg/mL, 30 μg/mL, or 100 μg/mL of MOG peptide for 15 h. Cells were then treated with GolgiStop (BD Biosciences) and incubated an additional 3 h and were subsequently stained.
Plates were centrifuged at 1800 rpm for 5 min and the media was then harvested and stored at −80 C until analysis. Cytokine secretion of IL-17a, IL-6, TNF-α, and IFN-γ were assessed using the BD cytometric Bead Array (CBA) (BD Biosciences) according to the manufacturer's guidelines. Splenocyte proliferation was determined using CellTrace™ CFSE Cell Proliferation Kit for flow cytometry (Life Technologies) according to manufacturer's instructions. Briefly, 1×10^6 cells were suspended in warm PBS/0.1% BSA and stained with CFSE solution at a final concentration of 5 μM and incubated at 37° C. for 10 min. The staining was quenched using 5 volumes of ice-cold culture media, incubated for 5 min on ice, centrifuged at 700 rcf for 5 min, washed twice using culture medium, and re-suspended in 10% FBS complete RPMI-1640. Cells were then cultured in 0 μg/mL or 30 μg/mL of MOG(35-55) peptide for 72 h at 37° C., 5% CO2. […] Proliferation was analyzed by flow cytometry following staining in the presence of PI.

EAE-induced mice = assay: In vivo BBB permeability, fibrinogen extravasation in spinal cord; design: species or system mouse; settings: EAE day 18; treated every 3 days; vs vehicle
Description: To establish the role of RGMc on BBB permeability, 6-8 week old C57Bl/6 female mice induced with EAE and treated with sRGMc or vehicle (n=6 animals per group) were anesthetized 18 days post induction and trans-cardially perfused with 20 mL PBS followed by 20 mL 4% paraformaldehyde in PBS (PFA) (Electron Microscopy Sciences). Spinal cords were cryo-sectioned at 10 μm thickness and stored at −80° C. The sections were stained for Fibrinogen (Innovative Research); CD31 (Invitrogen); and DAPI (Sigma-Aldrich). All images were obtained using a BX61 confocal microscope (Olympus). CellSens software was used for quantification of cell area and pixel intensity. The area (number of pixels) and fluorescent intensity (mean pixel intensity) of the extravasation markers were measured using CellSens software (Olympus). The relative extent of fluorescent extravasation and BBB disruption was then calculated by multiplying the area with the fluorescent intensity.

[2] = system: mouse cerebellar organotypic cultures; assay: Remyelination in lysolecithin-demyelinated cerebellar organotypic cultures (MBP staining); assay type: cell-based; settings: sRGMc 500 ng/ml for 14 days after lysolecithin
Description: To assess the ability of sRGMc to function as a remyelinating agent, its function in in vitro cerebellar explant cultures was investigated. Briefly, cultures were demyelinated using lysolecithin, a detergent, and then cultured in the presence of sRGMc for 14 days.
Myelination-demyelination-remyelination studies were performed in mouse cerebellar organotypic cultures. The cerebella of postnatal 6 day old pups were dissected and sectioned at 400 μm thickness using vibratome. Cerebellar sections were then plated on insert plates (Corning, Wilkes Barre, Pa.) and allowed to attach. Media was replaced every 2-3 days and cultures were maintained for 7 days. To induce demyelination, 0.5 mg/ml lysolecithin (1′-monoacyl-1-3-glycerylphosphorylcholine; Sigma) was added to the culture medium for 18 hr, after which it was removed and replaced with fresh medium containing sRGMc (500 ng/ml) or control protein and the cultures maintained for 14 more days. Media was replaced every 2-3 days. Demyelination-remyelination was assessed by staining explants with myelin basic protein antibody MBP (Cell Signaling).

rats subjected to MCAO [3] = assay: Middle Cerebral Artery Occlusion (MCAO), Evans Blue BBB integrity; assay type: in vivo, rat; settings: daily tail vein injection of 70 μg, seven days following MCAO
Description: The possibility that RGMc may also restore BBB integrity following stroke was also tested. Middle Cerebral Artery Occlusion (MCAO) was performed in rats, which were treated with a daily tail vein injection of 70 μg of RGMc or PBS (control). Seven days following MCAO, animals received injection of Evans blue to monitor BBB integrity (FIG. 24). To measure BBB integrity, the amount of Evans Blue Dye/g of brain tissue was measured. […] This effect was also quantitated: brains were homogenized and the amount of Evans Blue quantified per gram of wet brain (FIG. 24, B).

rats subjected to MCAO [4] = assay: MCAO, neurological deficit (Bederson test); assay type: in vivo, rat; settings: tail-vein injection of 70 μg, 7 day period, vs PBS
Description: In a separate experiment, whether RGMc treatment, which prevents BBB disruption following stroke, could lead to functional recovery (FIG. 25) was studied. Rats were subjected to MCAO and treated with either tail-vein injection of 70 μg of RGMc or control (PBS).

[5] = system: Claudin 5 in b.End3 cells; assay: Claudin 5 expression in endothelial cells by Western blot; assay type: cell-based, mouse; settings: incubation with RGM proteins, vs PBS
Description: Cells were pretreated for 6 h with PBS, RGMc, RGMa or RGMc+RGMa. Western blotting was performed on the lysates with Claudin-5 and GAPDH antibodies.
Next, the BBB permeability was assessed by injecting mice with BSA, RGMa, RGMa plus RGMc and subsequently followed by assessment of Texas dye leakage using widefield imaging as an indication of BBB integrity. […] Thus, Claudin 5 expression following RGMa/c treatments of murine-derived brain endothelial cells (b.End3) was studied. B.En3 cells were grown up to 80% confluency and were treated with overnight incubation with RGM proteins.

B1: sRGMc: truncated form of RGMc with the GPI anchor sequence removed, released as a soluble protein (SEQ ID NOs: 1 and 3) (protein, listed as Homo sapiens)
chain: CKILRCNAEYVSSTLSLRGGGSSGALRGGGGGGRGGGVGSGGLCRALRSYALCTRRTARTCRGDLAFHSAVHGIEDLMIQHNCSRQGPTAPPPPRGPALPGAGSGLPAPDPCDYEGRFSRLHGRPPGFLHCASFGDPHVRSFHHHFHTCRVQGAWPLLDNDFLFVQATSSPMALGANATATRKLTIIFKNMQECIDQKVYQAEVDNLPVAFEDGSINGGDRPGGSSLSIQTANPGNHVEIQAAYIGTTIIIRQTAGQLSFSIKVAEDVAMAFSAEQDLQLCVGGCPPSQRLSRSERNRRGAITIDTARRLCKEGLPVEDAYFHSCVFDVLISGDPNFTVAAQAALEDARAFLPDLEKLH
cytokine secretion (IL17, IFN-γ, TNFα, IL6) of MOG-pulsed splenocytes ([1]; pulsed with MOG for 96 h, ELISA, vs vehicle): does not alter | cytokine profile of splenocytes re-stimulated with MOG(35-55) ([1]; re-stimulated for 18 hrs, vs control mice): no apparent effect | fibrinogen extravasation (EAE-induced mice): significant decrease | remyelination (myelin basic protein staining) [2]: promote remyelination | reduction in Evans Blue levels in the brain compared to PBS-treated animals (rats subjected to MCAO [3]): 3 fold | Evans Blue extravasation into the CNS, visual inspection (rats subjected to MCAO [3]; vs control): strongly reduced | functional scores (Bederson test) (rats subjected to MCAO [4]): significant (*p<0.05) improvement of functional scores | Claudin 5 levels [5]: did affect Claudin5 levels
